Test results reported in PMC9352680, “A comprehensive thermodynamic model for RNA binding by the Saccharomyces cerevisiae Pumilio protein PUF4”.
Changes are numbered by the printed parent chain. Names and notes keep the numbering of the source.

Target: T1, PUF4 RNA-binding domain (Saccharomyces cerevisiae, UniProt P25339 537-888)
T1 sequence: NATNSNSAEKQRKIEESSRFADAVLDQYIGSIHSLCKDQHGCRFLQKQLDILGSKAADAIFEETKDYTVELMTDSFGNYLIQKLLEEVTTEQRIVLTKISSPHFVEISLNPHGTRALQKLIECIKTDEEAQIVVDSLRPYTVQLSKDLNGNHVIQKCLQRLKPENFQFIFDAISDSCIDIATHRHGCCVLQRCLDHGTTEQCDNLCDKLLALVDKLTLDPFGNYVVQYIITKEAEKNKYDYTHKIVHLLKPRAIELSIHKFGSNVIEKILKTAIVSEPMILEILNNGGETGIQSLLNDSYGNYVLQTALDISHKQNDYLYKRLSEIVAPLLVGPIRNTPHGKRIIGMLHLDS
Assay: Mg; RNA-MaP; 20 mM Na-HEPES pH 7.4, 30 mM KOAc, 0.75 mM MgCl2, 0.1% Tween-20, 5% glycerol, 0.1 mg/mL BSA, 2 mM DTT; 25 C; 0.0125-409.6 nM protein
Conditions: tags: N-His6-TEV cleaved; C-SNAP kept, Cy3B-labelled; label: tethered on chip by stalled RNA polymerase

B1: Id_ii_S2_P4E.4_K4.3_C4.2_H4.3_A4.1_F4.1_T4.2_[T11C] (ssRNA)
RNA: UUUGAUUAAUAUGAUAUCGUUCUUUCUCUACACUAUUAGCUUCUUUCUCGAUAUCAUAUUAAUCUUU
Kd: 1620 nM

B2: Id_ii_S2_P4E.4_K4.3_C4.2_H4.3_A4.1_F4.1_T4.2 (ssRNA)
RNA: B1 RNA with C40U
Kd: > 2300 nM

B3: Id_ii_S2_P5E.2_K5.1_C5.2_[C-2G]_[T-1C]_H5.1_A5.1_F5.1_T5.2_[T11A]_[A12C] (ssRNA)
RNA: UUUGAUUAAUAUGAUAUCGUUCUUUCUGCUGUAUUAUUAACUUCUUUCUCGAUAUCAUAUUAAUCUUU
Kd: 25.4 nM

B4: Id_ii_S2_P5E.2_K5.1_C5.2_[C-2G]_[T-1C]_H5.1_A5.1_F5.1_T5.2_[T11A]_[A12T] (ssRNA)
RNA: B3 RNA with C41U
Kd: 3.35 nM

B5: Ib_S1_P5E.1_K5.1_C5.1_H5.1_A5.1_[T5A]_F5.1_[T8A]_T5.1 (ssRNA)
RNA: UCUCUUUGUAAUAAUAUCUCUU
Kd: 17.8 nM

B6: Id_ii_S2_P5E.2_K5.1_C5.2_[C-2G]_[T-1C]_H5.1_A5.1_F5.1_T5.2_[T11A] (ssRNA)
RNA: B3 RNA with C41A
Kd: 7.06 nM

B7: Id_ii_S2_P5E.2_K5.1_C5.2_[C-2G]_[T-1C]_H5.1_A5.1_F5.1_T5.2_[A12C] (ssRNA)
RNA: B3 RNA with A40U
Kd: 11.2 nM

B8: Id_ii_S2_P5E.2_K5.1_C5.2_[C-2G]_[T-1C]_H5.1_A5.1_F5.1_T5.2_[A12T] (ssRNA)
RNA: B3 RNA with A40U, C41U
Kd: 3.07 nM

B9: Id_ii_S2_P5E.2_K5.1_C5.2_[C-2G]_H5.1_A5.1_F5.1_T5.2_[T11G]_[A12T] (ssRNA)
RNA: B3 RNA with C29U, A40G, C41U
Kd: 3.05 nM

B10: Id_ii_S2_P5E.2_K5.1_C5.2_[C-2G]_H5.1_A5.1_F5.1_T5.2_[T11A]_[A12T] (ssRNA)
RNA: B3 RNA with C29U, C41U
Kd: 3.86 nM

B11: Id_ii_S2_P5E.2_K5.1_C5.2_[C-2G]_H5.1_A5.1_F5.1_T5.2_[A12C] (ssRNA)
RNA: B3 RNA with C29U, A40U
Kd: 18.8 nM

B12: Id_ii_S2_P5E.2_K5.1_C5.2_[C-2G]_H5.1_A5.1_F5.1_T5.2_[A12T] (ssRNA)
RNA: B3 RNA with C29U, A40U, C41U
Kd: 2.47 nM

B13: Id_ii_S2_P5E.2_K5.1_C5.2_[C-2T]_[T-1G]_H5.1_A5.1_F5.1_T5.2_[T11G]_[A12C] (ssRNA)
RNA: B3 RNA with G28U, C29G, A40G
Kd: 2.9 nM

B14: Id_ii_S2_P5E.2_K5.1_C5.2_[C-2T]_[T-1G]_H5.1_A5.1_F5.1_T5.2_[T11A]_[A12T] (ssRNA)
RNA: B3 RNA with G28U, C29G, C41U
Kd: 1.41 nM

B15: Id_ii_S2_P5E.2_K5.1_C5.2_[C-2T]_[T-1G]_H5.1_A5.1_F5.1_T5.2_[T11A] (ssRNA)
RNA: B3 RNA with G28U, C29G, C41A
Kd: 1.72 nM

B16: Ib_S1_P5E.1_K5.1_C5.1_H5.1_A5.1_[T6C]_F5.1_[T8G]_T5.1 (ssRNA)
RNA: UCUCUUUGUAUCAGUAUCUCUU
Kd: 27.9 nM

B17: Id_ii_S2_P5E.2_K5.1_C5.2_[C-2T]_[T-1G]_H5.1_A5.1_F5.1_T5.2_[A12C] (ssRNA)
RNA: B3 RNA with G28U, C29G, A40U
Kd: 1.84 nM

B18: Id_ii_S2_P5E.2_K5.1_C5.2_[C-2T]_[T-1G]_H5.1_A5.1_F5.1_T5.2_[A12T] (ssRNA)
RNA: B3 RNA with G28U, C29G, A40U, C41U
Kd: 1.42 nM

B19: Id_ii_S2_P5E.2_K5.1_C5.2_[C-2T]_[T-1C]_H5.1_A5.1_F5.1_T5.2_[T11A]_[A12G] (ssRNA)
RNA: B3 RNA with G28U, C41G
Kd: 51 nM

B20: Id_ii_S2_P5E.2_K5.1_C5.2_[C-2T]_[T-1C]_H5.1_A5.1_F5.1_T5.2_[T11A]_[A12C] (ssRNA)
RNA: B3 RNA with G28U
Kd: 4.08 nM

B21: Id_ii_S2_P5E.2_K5.1_C5.2_[C-2T]_[T-1C]_H5.1_A5.1_F5.1_T5.2_[T11A] (ssRNA)
RNA: B3 RNA with G28U, C41A
Kd: 4.24 nM

B22: Id_ii_S2_P5E.2_K5.1_C5.2_[C-2T]_[T-1C]_H5.1_A5.1_F5.1_T5.2_[A12G] (ssRNA)
RNA: B3 RNA with G28U, A40U, C41G
Kd: 3.04 nM

B23: Id_ii_S2_P5E.2_K5.1_C5.2_[C-2T]_[T-1C]_H5.1_A5.1_F5.1_T5.2_[A12C] (ssRNA)
RNA: B3 RNA with G28U, A40U
Kd: 2.98 nM

B24: Id_ii_S2_P5E.2_K5.1_C5.2_[C-2T]_[T-1C]_H5.1_A5.1_F5.1_T5.2_[A12T] (ssRNA)
RNA: B3 RNA with G28U, A40U, C41U
Kd: 1.5 nM

B25: Id_ii_S2_P5E.2_K5.1_C5.2_[C-2T]_[T-1A]_H5.1_A5.1_F5.1_T5.2_[T11G]_[A12T] (ssRNA)
RNA: B3 RNA with G28U, C29A, A40G, C41U
Kd: 4.78 nM

B26: Id_ii_S2_P5E.2_K5.1_C5.2_[C-2T]_[T-1A]_H5.1_A5.1_F5.1_T5.2_[T11A]_[A12C] (ssRNA)
RNA: B3 RNA with G28U, C29A
Kd: 8.24 nM

B27: Ic_S1_P5E.1_K5.1_C5.1_H5.1_A5.1_[T6A]_F5.1_[T8G]_T5.1 (ssRNA)
RNA: UCUCUUUGUAUAAGUAUCUCUU
Kd: 54 nM

B28: Id_ii_S2_P5E.2_K5.1_C5.2_[C-2T]_[T-1A]_H5.1_A5.1_F5.1_T5.2_[T11A] (ssRNA)
RNA: B3 RNA with G28U, C29A, C41A
Kd: 12.2 nM

B29: Id_ii_S2_P5E.2_K5.1_C5.2_[C-2T]_[T-1A]_H5.1_A5.1_F5.1_T5.2_[A12C] (ssRNA)
RNA: B3 RNA with G28U, C29A, A40U
Kd: 4.16 nM

B30: Id_ii_S2_P5E.2_K5.1_C5.2_[C-2T]_[T-1A]_H5.1_A5.1_F5.1_T5.2_[A12T] (ssRNA)
RNA: B3 RNA with G28U, C29A, A40U, C41U
Kd: 2.85 nM

B31: Id_ii_S2_P5E.2_K5.1_C5.2_[C-2T]_H5.1_A5.1_F5.1_T5.2_[T11G]_[A12T] (ssRNA)
RNA: B3 RNA with G28U, C29U, A40G, C41U
Kd: 3.67 nM

B32: Id_ii_S2_P5E.2_K5.1_C5.2_[C-2T]_H5.1_A5.1_F5.1_T5.2_[T11A]_[A12T] (ssRNA)
RNA: B3 RNA with G28U, C29U, C41U
Kd: 3.17 nM

B33: Id_ii_S2_P5E.2_K5.1_C5.2_[C-2T]_H5.1_A5.1_F5.1_T5.2_[T11A] (ssRNA)
RNA: B3 RNA with G28U, C29U, C41A
Kd: 5.96 nM

B34: Id_ii_S2_P5E.2_K5.1_C5.2_[C-2T]_H5.1_A5.1_F5.1_T5.2_[A12C] (ssRNA)
RNA: B3 RNA with G28U, C29U, A40U
Kd: 1.86 nM

B35: Id_ii_S2_P5E.2_K5.1_C5.2_[C-2T]_H5.1_A5.1_F5.1_T5.2_[A12T] (ssRNA)
RNA: B3 RNA with G28U, C29U, A40U, C41U
Kd: 1.44 nM

B36: Id_ii_S2_P5E.2_K5.1_C5.2_[C-2A]_[T-1G]_H5.1_A5.1_F5.1_T5.2_[T11A]_[A12T] (ssRNA)
RNA: B3 RNA with G28A, C29G, C41U
Kd: 7.45 nM

B37: Id_ii_S2_P5E.2_K5.1_C5.2_[C-2A]_[T-1C]_H5.1_A5.1_F5.1_T5.2_[T11A]_[A12C] (ssRNA)
RNA: B3 RNA with G28A
Kd: 5.62 nM

B38: Ib_S1_P5E.1_K5.1_C5.1_H5.1_A5.1_[T6G]_F5.1_[T8C]_T5.1 (ssRNA)
RNA: UCUCUUUGUAUGACUAUCUCUU
Kd: 31.2 nM

B39: Id_ii_S2_P5E.2_K5.1_C5.2_[C-2A]_[T-1C]_H5.1_A5.1_F5.1_T5.2_[T11A]_[A12T] (ssRNA)
RNA: B3 RNA with G28A, C41U
Kd: 3.61 nM

B40: Id_ii_S2_P5E.2_K5.1_C5.2_[C-2A]_[T-1C]_H5.1_A5.1_F5.1_T5.2_[A12G] (ssRNA)
RNA: B3 RNA with G28A, A40U, C41G
Kd: 31.6 nM

B41: Id_ii_S2_P5E.2_K5.1_C5.2_[C-2A]_[T-1C]_H5.1_A5.1_F5.1_T5.2_[A12C] (ssRNA)
RNA: B3 RNA with G28A, A40U
Kd: 2.94 nM

B42: Id_ii_S2_P5E.2_K5.1_C5.2_[C-2A]_[T-1C]_H5.1_A5.1_F5.1_T5.2_[A12T] (ssRNA)
RNA: B3 RNA with G28A, A40U, C41U
Kd: 2.49 nM

B43: Id_ii_S2_P5E.2_K5.1_C5.2_[C-2A]_[T-1A]_H5.1_A5.1_F5.1_T5.2_[T11A]_[A12C] (ssRNA)
RNA: B3 RNA with G28A, C29A
Kd: 19 nM

B44: Id_ii_S2_P5E.2_K5.1_C5.2_[C-2A]_[T-1A]_H5.1_A5.1_F5.1_T5.2_[T11A]_[A12T] (ssRNA)
RNA: B3 RNA with G28A, C29A, C41U
Kd: 20.4 nM

B45: Id_ii_S2_P5E.2_K5.1_C5.2_[C-2A]_[T-1A]_H5.1_A5.1_F5.1_T5.2_[A12C] (ssRNA)
RNA: B3 RNA with G28A, C29A, A40U
Kd: 9.68 nM

B46: Id_ii_S2_P5E.2_K5.1_C5.2_[C-2A]_H5.1_A5.1_F5.1_T5.2_[T11A]_[A12C] (ssRNA)
RNA: B3 RNA with G28A, C29U
Kd: 6.07 nM

B47: Id_ii_S2_P5E.2_K5.1_C5.2_[C-2A]_H5.1_A5.1_F5.1_T5.2_[T11A]_[A12T] (ssRNA)
RNA: B3 RNA with G28A, C29U, C41U
Kd: 5.79 nM

B48: Id_ii_S2_P5E.2_K5.1_C5.2_[C-2A]_H5.1_A5.1_F5.1_T5.2_[A12G] (ssRNA)
RNA: B3 RNA with G28A, C29U, A40U, C41G
Kd: 5.06 nM

B49: Ia_S1_P5E.1_K5.1_C5.1_H5.1_[A4G]_A5.1_F5.1_T5.1 (ssRNA)
RNA: UCUCUUUGUGUUAUUAUCUCUU
Kd: 30.7 nM

B50: Ib_S1_P5E.1_K5.1_C5.1_H5.1_A5.1_[T6C]_F5.1_[T8C]_T5.1 (ssRNA)
RNA: UCUCUUUGUAUCACUAUCUCUU
Kd: 18 nM

B51: Id_ii_S2_P5E.2_K5.1_C5.2_[C-2A]_H5.1_A5.1_F5.1_T5.2_[A12C] (ssRNA)
RNA: B3 RNA with G28A, C29U, A40U
Kd: 3.2 nM

B52: Id_ii_S2_P5E.2_K5.1_C5.2_[C-2A]_H5.1_A5.1_F5.1_T5.2_[A12T] (ssRNA)
RNA: B3 RNA with G28A, C29U, A40U, C41U
Kd: 2.99 nM

B53: Id_ii_S2_P5E.2_K5.1_C5.2_[T-1G]_H5.1_A5.1_F5.1_T5.2_[T11G]_[A12C] (ssRNA)
RNA: B3 RNA with G28C, C29G, A40G
Kd: 2.28 nM

B54: Id_ii_S2_P5E.2_K5.1_C5.2_[T-1G]_H5.1_A5.1_F5.1_T5.2_[T11G]_[A12T] (ssRNA)
RNA: B3 RNA with G28C, C29G, A40G, C41U
Kd: 1.86 nM

B55: Id_ii_S2_P5E.2_K5.1_C5.2_[T-1G]_H5.1_A5.1_F5.1_T5.2_[T11A]_[A12C] (ssRNA)
RNA: B3 RNA with G28C, C29G
Kd: 6.1 nM

B56: Id_ii_S2_P5E.2_K5.1_C5.2_[T-1G]_H5.1_A5.1_F5.1_T5.2_[T11A]_[A12T] (ssRNA)
RNA: B3 RNA with G28C, C29G, C41U
Kd: 2.03 nM

B57: Id_ii_S2_P5E.2_K5.1_C5.2_[T-1G]_H5.1_A5.1_F5.1_T5.2_[T11A] (ssRNA)
RNA: B3 RNA with G28C, C29G, C41A
Kd: 3.97 nM
